The target of experiment [1] is cyno PRLR on Baf3-cyPRLR cells (cyno). In words: cell-based or functional assay.
Experiment [2] has as its target T1, human PRLR (Biacore antigen) (human, UniProt P16471 25-234, limits assumed).
T1 construct: The construct injected over captured antibody is not described (a soluble form is likely); also called huPRLR
T1 sequence: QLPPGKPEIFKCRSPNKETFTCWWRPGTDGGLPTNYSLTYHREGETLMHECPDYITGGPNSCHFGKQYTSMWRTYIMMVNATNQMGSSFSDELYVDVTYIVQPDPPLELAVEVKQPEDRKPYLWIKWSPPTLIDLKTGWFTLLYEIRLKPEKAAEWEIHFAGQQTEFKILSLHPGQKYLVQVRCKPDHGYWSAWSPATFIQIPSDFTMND
Nature of the experiment: SPR simultaneous binding; PRLR held by surface mAb Ab48. The procedure: (§1) Running buffer was HBS-EP+ (10 mM Hepes, pH7.4, 150 mM NaCl, 3 mM EDTA, 0.05% surfactant). Assay was performed at 12° C. using Biacore T200 and CM5 sensor chips with anti-human IgG (Pierce) amine-coupled in all 4 flow cells to ˜2000 RU.
(§2) Separate test mAbs were captured in flowcells 2, 3 & 4 (flowcell 1 was reference, no test mAb). All 4 flowcells were then blocked by injection with isotype control mAb at 50 ug/ml. All 4 flowcells were then injected with antigen or buffer only (buffer only is for double referencing, done for each mAb pair individually). All 4 flowcells were then injected with 2nd test mAb at 10 ug/ml. All 4 flowcells were then regenerated with glycine, pH1.5.

Experiment [3] concerns the target T1, human PRLR (Biacore antigen). Nature of the experiment: SPR simultaneous binding; PRLR held by surface mAb Ab39. The procedure: as §1, §2
For experiment [4] the target is unchanged. Nature of the experiment: SPR simultaneous binding; PRLR held by surface mAb chAb5. The procedure: as §1, §2
Experiment [5] has the same target. In words: SPR simultaneous binding; PRLR held by surface mAb chAb7. Here is the method: as §1, §2
The target is the same in experiment [6]. Nature of the experiment: SPR simultaneous binding; PRLR held by surface mAb LFA102. Here is the method: as §1, §2
The target is the same in experiment [7]. In words: SPR simultaneous binding; PRLR held by surface mAb Ab19. Here is the method:
as §1, §2

Experiment [8] has the same target. In words: SPR simultaneous binding; PRLR held by surface mAb Ab30. The procedure: as §1, §2
Experiment [9] shares this target. In words: SPR simultaneous binding; PRLR held by surface mAb Ab40. The procedure: as §1, §2
Experiment [10] deals with T2, human PRLR ECD-Fc fusion protein (human, UniProt P16471 25-233).
T2 construct: not shown: Fc region (captured by goat anti-human Fc)
T2 sequence: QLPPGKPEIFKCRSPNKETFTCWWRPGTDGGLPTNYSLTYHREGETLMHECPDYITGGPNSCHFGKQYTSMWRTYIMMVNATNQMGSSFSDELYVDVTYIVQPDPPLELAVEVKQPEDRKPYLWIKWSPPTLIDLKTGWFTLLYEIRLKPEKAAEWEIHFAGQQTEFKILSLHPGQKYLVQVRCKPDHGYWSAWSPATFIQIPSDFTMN
In words: ELISA on ECD. A digest of the protocol: (§3)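 PRLR was captured on blocked plates for 1 h, then incubated 1 h with serial antibody dilutions in PBS pH 7.4/0.05% Tween 20 containing 10% Superblock. HRP secondary and TMB gave signal read at 450 nm, and EC50 came from curve fitting.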
Background: An ELISA detects its analyte on a solid surface through an enzyme-linked reagent.

The target of experiment [11] is T3, cyno PRLR ECD-his6 protein (cyno).
T3 chain: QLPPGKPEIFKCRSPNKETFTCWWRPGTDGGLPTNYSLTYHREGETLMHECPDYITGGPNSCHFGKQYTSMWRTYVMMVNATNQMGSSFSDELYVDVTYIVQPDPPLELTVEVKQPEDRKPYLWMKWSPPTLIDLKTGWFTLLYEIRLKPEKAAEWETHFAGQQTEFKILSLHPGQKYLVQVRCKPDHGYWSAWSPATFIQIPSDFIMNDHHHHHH
In words: ELISA on ECD. The essentials: as §3

In experiment [12] the target is T1, human PRLR (Biacore antigen). Nature of the experiment: SPR simultaneous binding; PRLR held by surface mAb Ab21. The procedure:
as §1, §2

For experiment [13] the target is unchanged. In words: SPR simultaneous binding; PRLR held by surface mAb chAb8. The procedure:
as §1, §2

B1: chAb7 (antibody, human IgG1, kappa, V domains shown)
VH: QVQLQQPGAELVMPGTSVKLSCKASGYTFTSYWIHWVKQRPGQGLEWIGEIDPSDSYTNYNQKFKGKATLTVDRSSSTAYMQLSSLTSEDSAVYYCGRSFFTNWFAYWGQGTLVTVSA
VL: DVVMTQTPLSLPVSLGDQASISCRSSQSLVHSNGNTYLHWYLQKPGQSPKLLIYKVSNRFSGVPDRFSGSGSGTDFTLKINRVEAEDLGVYFCSQSTHVPFTFGSGTKLEIKT
notes: chimeric, murine variable and human G1/kappa constant regions
On to B1, for which the “Baf3-cyPRLR proliferation IC50” value in experiment [1] was 1.9 µg/mL. Moreover, the “solution mAb binding, % of PRLR binding” value in experiment [2] was 1%; in [3], -2%; in experiment [4] it was -1%; in experiment [5] it was 0%; in experiment [6], 48%; in experiment [7], -1%. Moreover, the “solution mAb binding, % of PRLR binding” value in [8] was -1%; in [9], -2%; in experiment [12] it was -1%; in experiment [13] it was 2%. The EC50 turned out to be 151 pM in experiment [10] and 118 pM in experiment [11].

B2: Ab19 (antibody, human IgG1, kappa, V domains shown)
VH: EVQLVQSGAEVKKPGSSVKVSCKASGYTFTTYWMHWVRQAPGQGLEWIGEIDPSDSYSNYNQKFKDRATLTVDKSTSTAYMELSSLRSEDTAVYYCARNGGLGPAWFSYWGQGTLVTVSS
VL: DIQMTQSPSSVSASVGDRVTITCKASQYVGTAVAWYQQKPGKSPKLLIYSASNRYTGVPSRFSDSGSGTDFTLTISSLQPEDFATYFCQQYSSYPWTFGGGTKVEIKR
notes: humanized from Ab6; G1; also called Ab1 HC.1a and Ab1 LC.1a
As to B2, the “Baf3-cyPRLR proliferation IC50” value in experiment [1] stood at 0.13 µg/mL. The “solution mAb binding, % of PRLR binding” value in experiment [2] was 0%; in experiment [3], -2%; in experiment [4], 0%; in experiment [5], 0%; in experiment [6], 122%; in [7], -1%. Also, the “solution mAb binding, % of PRLR binding” value was -1% in experiment [8], -2% in experiment [9], -1% in [12] and 0% in [13]. Moreover, the EC50 was 61.4 pM in [10] and 57.5 pM in [11].

B3: Ab21 (antibody, human IgG1, kappa, V domains shown)
VH: EVQLVQSGAEVKKPGSSVKVSCKASGYTFTTYWMHWVRQAPGQGLEWIGEIDPSDSYSNYNQKFKDRATLTVDKSTSTAYMELSSLRSEDTAVYYCARNGGLGPAWFSYWGQGTLVTVSS
VL: EIVMTQSPATLSVSPGERATLSCKASQYVGTAVAWYQQKPGQSPRLLIYSASNRYTGVPARFSDSGSGTEFTLTISSLQSEDFAVYFCQQYSSYPWTFGGGTKVEIKR
notes: humanized from Ab6; G1; also called Ab1 HC.1a and Ab1 LC.2a
Consider B3, for which, in experiment [1], the “Baf3-cyPRLR proliferation IC50” value is 0.15 µg/mL. Further, the “solution mAb binding, % of PRLR binding” value in [2] was 1%; in experiment [3] it was -2%; in experiment [4] it was -1%; in experiment [5], 0%; in experiment [6], 104%; in [7] it was -1%. Further, the “solution mAb binding, % of PRLR binding” value in experiment [8] is -1%; in experiment [9], -2%; in experiment [12] it was -1%; in experiment [13], 0%. Also, the EC50 came out at 72.8 pM in experiment [10] and 53.8 pM in [11].

B4: chAb8 (antibody, human IgG1, kappa, V domains shown)
VH: EVQLQQSGPELVKPGASVKISCKASGYTFTDYNIHWVKQSHGKSLEWIGYIYPNNDGTGYNQKFKSKATLTVDNSSSTAYMEVRSLTSEDSAVYYCARGDGNYVGDMDYWGQGTSVTVSS
VL: DIQMTQSPASLSASVGETVTITCRASENIYSYLAWYQQKQGKPPQLLVYNAKTLAEGVPSRFSGGGSGTQFSLKINSLQPEDFGSYYCQHHYATPFTFGSGTKLEIKT
notes: as for B1
Turning to B4, in experiment [1], the “Baf3-cyPRLR proliferation IC50” value was determined as 2.94 µg/mL. The “solution mAb binding, % of PRLR binding” value in experiment [2] was -1%; in experiment [3], -2%; in experiment [4], 0%; in experiment [5] it was 0%; in [6], -2%; in experiment [7], -1%. Besides, the “solution mAb binding, % of PRLR binding” value in [8] is -1%; in experiment [9] it was -2%; in [12] it was -1%; in experiment [13] it was -1%. The results for the EC50 in [10] and in [11] were 80 pM and 191 pM, respectively.

A word on the EC50: it is the concentration at which the effect is half-maximal. Read a high EC50 as weaker potency.
